The target in assay [1] is T1, hRET.mmh (human, UniProt P07949 29-635, biotinylated in the ELISA of Example 4 (biot-hRET.mmh); not in the SPR of Example 3).
T1 construct: also called biot-hRET.mmh; soluble monomeric human RET
Nature of the assay: competition sandwich ELISA: 1 nM biot-hRET.mmh + antibody, plate-coated GDNF/GFRα1 co-complex. As to the method: The ability of anti-RET antibodies to block the binding of human RET to pre-complexed plate bound GDNF:GFRα1 was assessed using a competition sandwich ELISA.
Antibody-RET mixtures were incubated for 1 hour at RT and then transferred to microtiter plates previously coated with the hGDNF/hGFRα1 co-complex. Binding was allowed to proceed for 1 hr at RT followed by extensive washing. […] Plates were read at 450 nm and data analysis used a sigmoidal dose-response model within Prism™ software.
The absorbance values of the wells containing the highest concentration for each antibody were used to determine the blocking percent at maximum concentration antibody tested.

Assay [2] deals with T2, hRET.mFc (human).
T2 construct: also called dimeric human RET
The assay can be described thus: SPR Biacore T200, mAb capture, 37 C. How it is done:
(§1) Binding affinities and kinetic constants of human anti-RET antibodies were determined by surface plasmon resonance (Biacore T200) at […] (Tables 2-3). […] Binding equilibrium dissociation constants (KD) and dissociative half-lives (t_{1/2}) were calculated from the kinetic rate constants as: KD [M]=kd/kₐ; and t_{1/2}(min)=(ln2/(60*kd). Calculations were performed using BiacoreT200 evaluation software v1.0.
In general terms: In SPR one partner is held on a chip, and binding of the other changes the refractive index at the surface.

Assay [3] deals with T3, Macaca fascicularis (mf) RET.mmh (Macaca fascicularis).
T3 construct: also called monkey RET
T3 chain: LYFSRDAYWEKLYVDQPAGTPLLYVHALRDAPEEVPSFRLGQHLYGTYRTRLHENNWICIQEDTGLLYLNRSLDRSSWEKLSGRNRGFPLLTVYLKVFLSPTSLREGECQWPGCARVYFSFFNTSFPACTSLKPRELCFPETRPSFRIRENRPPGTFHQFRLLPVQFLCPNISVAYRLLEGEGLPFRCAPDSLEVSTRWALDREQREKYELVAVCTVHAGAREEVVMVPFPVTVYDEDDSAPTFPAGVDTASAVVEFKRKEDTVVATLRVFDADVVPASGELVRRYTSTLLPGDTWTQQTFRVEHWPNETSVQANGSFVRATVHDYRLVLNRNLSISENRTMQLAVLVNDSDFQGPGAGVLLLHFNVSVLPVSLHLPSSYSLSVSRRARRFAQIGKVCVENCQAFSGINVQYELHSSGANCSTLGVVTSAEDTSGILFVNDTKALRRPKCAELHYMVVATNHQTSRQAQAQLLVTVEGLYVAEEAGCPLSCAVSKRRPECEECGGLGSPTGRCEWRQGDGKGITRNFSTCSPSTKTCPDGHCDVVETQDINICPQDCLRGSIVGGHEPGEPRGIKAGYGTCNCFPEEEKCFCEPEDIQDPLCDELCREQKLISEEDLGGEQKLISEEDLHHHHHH
Nature of the assay: SPR Biacore T200, mAb capture, 37 C. As to the method:
as §1

Assay [4] addresses T1, hRET.mmh. Nature of the assay: SPR Biacore T200, mAb capture, 37 C. As to the method:
as §1

For assay [5], the target named is T2, hRET.mFc. Nature of the assay: SPR Biacore T200, mAb capture, 25 C. As to the method:
as §1

In assay [6] the target is T3, Macaca fascicularis (mf) RET.mmh. Nature of the assay: SPR Biacore T200, mAb capture, 25 C. As to the method: as §1
Assay [7] has as its target T1, hRET.mmh. The assay can be described thus: SPR Biacore T200, mAb capture, 25 C. How it is done:
as §1

B1: H4H8066P (antibody, human IgG4, V domains shown)
VH: EVQLVESGGGLVQPGGSLRLSCEASGFTFSRYAMTWVRQAPGKGLEWVSGISGSGGSTFYVDSLQGRFTLSRDNSKHTLFLQMNSLRAEDTAIYYCAKENTYGHFDYWGQGTLVTVSS
VL: DIQLTQSPSFLSASVGDRVTITCWASQDISTYLAWYQQKPGKAPQVLIYAASSLQYGVPSRFSGSGSGTEFTLTITSLQPEDFATYYCQQLIGYPYIFGQGTKLEIK
notes: human IgG4 Fc (H4H prefix)
What is called IC50 is the point on the concentration scale where inhibition reaches its midpoint. A word on the Kd: it is the free concentration of one partner at which half of the binding sites on the other are occupied at equilibrium, for simple one-to-one binding. Read a high Kd as lower affinity. The term koff denotes a measure of how fast the partners let go of each other. Higher therefore signals fast dissociation. In general, kon refers to a measure of how fast the partners come together. A higher kon goes with faster complex formation. Usually t½ stands for the time needed for the level to fall by half in the phase considered. Turning to B1, the “% Max Blocking” value in assay [1] turned out to be 57%. In addition, the IC50 in assay [1] turned out to be 0.41 nM. Also, the Kd was determined as 1.28 nM in assay [2]; 39.4 nM in assay [3]; 5.43 nM in assay [4]; 0.58 nM in assay [5]; 13.7 nM in assay [6]; 2.02 nM in assay [7]. Further, the koff amounted to 0.000335 s⁻¹ in assay [2]; 0.00323 s⁻¹ in assay [3]; 0.00106 s⁻¹ in assay [4]; 0.00012 s⁻¹ in assay [5]; 0.000882 s⁻¹ in assay [6]; 0.000257 s⁻¹ in assay [7]. Also, the kon in assay [2] is 262000 M⁻¹ s⁻¹; in assay [3] it was 81900 M⁻¹ s⁻¹; in assay [4] it was 195000 M⁻¹ s⁻¹; in assay [5] it was 207000 M⁻¹ s⁻¹; in assay [6], 64300 M⁻¹ s⁻¹; in assay [7] it was 127000 M⁻¹ s⁻¹. The t½ turned out to be 34 min in assay [2]; 4 min in assay [3]; 11 min in assay [4]; 96 min in assay [5]; 13 min in assay [6]; 45 min in assay [7].

B2: H4H8080P (antibody, human IgG4, V domains shown)
VH: EVQLVESGGGLVQSGGSLRLSCVASGFTFSTYAMTWVRQAPGRGLEWVSAISGSGASTYYADSLKGRFTVSRDNSKNTLYLQMNSLRAEDTAVYYCSKDHRNYDSDYDMDVWGQGTTVTVSS
VL: DIQMTQSPSSLSASVGDRVTITCRASQGIRNYLGWYQQKPGKAPKRLIYTASSLQSGVPSRFRGSGSGTEFTLTISSLQPEDFATYYCLQHNSYPYTFGQGTKLEIK
notes: human IgG4 Fc (H4H prefix)
In the case of B2, in assay [1], the “% Max Blocking” value is 82% and the IC50 is under 0.25 nM. In assay [2], this molecule showed a Kd of 3.98 nM, a koff of 0.00107 s⁻¹, a kon of 269000 M⁻¹ s⁻¹ and a t½ of 11 min. In assay [4], this molecule yielded a Kd of 9.35 nM, a koff of 0.00267 s⁻¹, a kon of 285000 M⁻¹ s⁻¹ and a t½ of 4 min. Also, in assay [5], binding was put at a Kd of 1.32 nM, the koff was 0.000242 s⁻¹, the on-rate (kon) turned out to be 183000 M⁻¹ s⁻¹ and the t½ stood at 48 min. Further, in assay [6], the binding result is “no binding”. Also, in assay [7], the affinity, expressed as Kd, was 2.38 nM; the off-rate (koff) worked out at 0.000502 s⁻¹; the kon amounted to 211000 M⁻¹ s⁻¹; the t½ worked out at 23 min.

B3: H4H8084P (antibody, human IgG4, V domains shown)
VH: QVQLVESGGGVVQPGRSLRLSCEASGFTFRNYGMHWVRQAPGKGLDWVSTIYYDGSDEYYSDSVKGRFTISRDNSKNTLYLQMNSLRAEDTAVYYCARDPPSFRYFDYWGQGTLVTVSS
VL: DIQMTQSPSTLSASVGDRVTITCRASQSIRSWLTWYQQKPGKAPKVLIYKASTLERGVPSRFSGSGSGTEFTLTISSLQPEDFATYYCHQYSSYSYTFGQGTKLEIK
notes: human IgG4 Fc (H4H prefix)
Consider B3, for which the “% Max Blocking” value in assay [1] was 96%. Besides, the IC50 in assay [1] is under 0.25 nM. The Kd in assay [2] came to 0.809 nM; in assay [3], 1.76 nM; in assay [4], 1.56 nM; in assay [5], 0.284 nM; in assay [6] it was 0.565 nM; in assay [7], 0.518 nM. Moreover, the dissociation rate constant (koff) stood at 0.00085 s⁻¹ in assay [2]; 0.00178 s⁻¹ in assay [3]; 0.00165 s⁻¹ in assay [4]; 0.000204 s⁻¹ in assay [5]; 0.000393 s⁻¹ in assay [6]; 0.000375 s⁻¹ in assay [7]. In addition, the kon was 1.05e+06 M⁻¹ s⁻¹ in assay [2]; 1.01e+06 M⁻¹ s⁻¹ in assay [3]; 1.06e+06 M⁻¹ s⁻¹ in assay [4]; 720000 M⁻¹ s⁻¹ in assay [5]; 695000 M⁻¹ s⁻¹ in assay [6]; 723000 M⁻¹ s⁻¹ in assay [7]. Also, the t½ came out at 14 min in assay [2]; 6 min in assay [3]; 7 min in assay [4]; 57 min in assay [5]; 29 min in assay [6]; 31 min in assay [7].

B4: H4H8067P (antibody, human IgG4, V domains shown)
VH: QVQLVESGGGVVQPGRSLRLSCVASGFTFSNYGMHWVRQAPGKGLEWVALIWYDGSNKYFADSVKGRFTISRDNSKRMMFLEMNSLRAEDTAIYYCTRDRLFDFWGQGTLVTVSS
VL: AIQMTQSPSSLSASVGDRVSITCRASQDIRHDLGWFHQKPGKAPKLLIYAASTLQSGVPSRFGGSGSGTDFTLTITSLQPEDFGTYYCLQDYNYPATFGQGTRLEIK
notes: human IgG4 Fc (H4H prefix)
With B4, the “% Max Blocking” value in assay [1] came out at 95%. For the same molecule, the IC50 in assay [1] was under 0.25 nM. Further, the Kd in assay [2] is 2.24 nM; in assay [3], 196 nM; in assay [4] it was 7.31 nM; in assay [5], 0.94 nM; in assay [6], 385 nM; in assay [7], 2.12 nM. In addition, the koff stood at 0.000458 s⁻¹ in assay [2]; 0.0603 s⁻¹ in assay [3]; 0.00116 s⁻¹ in assay [4]; 0.000158 s⁻¹ in assay [5]; 0.0415 s⁻¹ in assay [6]; 0.000235 s⁻¹ in assay [7]. For the same molecule, the kon in assay [2] worked out at 204000 M⁻¹ s⁻¹; in assay [3] it was 307000 M⁻¹ s⁻¹; in assay [4] it was 159000 M⁻¹ s⁻¹; in assay [5] it was 168000 M⁻¹ s⁻¹; in assay [6] it was 108000 M⁻¹ s⁻¹; in assay [7], 111000 M⁻¹ s⁻¹. The t½ in assay [2] was 25 min; in assay [3] it was 0.2 min; in assay [4], 10 min; in assay [5], 73 min; in assay [6], 0.3 min; in assay [7] it was 49 min.

B5: H2M7086N (antibody, mouse IgG2, V domains shown)
VH: QVQLVESGGGVVQPGRSLRLSCVVSGFTFSNYGMHWVRQGPGRGLEWLALIWYDGSDKYYAESVRGRFTISRDNSKNTVYLQMNSLRAEDTAMYYCTRDRIFDYWGQGTLVTVSS
VL: AIQMTQSPSSLSASVGDRVTITCRASQDIRNDLGWYQHNPGKAPNLLIYAASTLQIGVPSRFRGSGSGTDFTLTISSLQPEDFATYYCLQDFDYPLSFGGGTKVEIR
notes: human variable domains with mouse IgG2 Fc (H2M prefix)
With B5, in assay [1], the “% Max Blocking” value was 96% and the IC50 was found to be 0.33 nM.

B6: H4H7086N (antibody, human IgG4, V domains shown)
VH: B5 VH
VL: B5 VL
notes: human IgG4 Fc form of 7086N; also called H4H7086P
For the molecule B6, in assay [1], the “% Max Blocking” value is 97% and the IC50 came out at 0.39 nM.

B7: H4H8083P (antibody, human IgG4, V domains shown)
VH: QVQLVESGGGVVQPGRSLRLSCAASGFTFNNYVMHWVRQAPGKGLEWVALIWYDGSNKYYADSVKGRFTISRDNSKNALNLQMNSLRAEDTAVYFCARVSIAARNYYYGGLDVWGQGTTVTVSS
VL: EIVLTQSPGTLSLSPGERATLSCRASQSVSSTYLAWYQQKPGQAPRLLIYGASSRATGIPDRFSGSGSGTDFTLTISRLEPEDFAVYYCQHYGGSPLTFGGGTKVEIK
notes: human IgG4 Fc (H4H prefix)
For B7, the “% Max Blocking” value in assay [1] stood at 95%. For the same molecule, in assay [1], the IC50 is under 0.25 nM. The Kd in assay [2] turned out to be 3.02 nM; in assay [3], 14.2 nM; in assay [4], 9.04 nM; in assay [5], 1.14 nM; in assay [6], 3.44 nM; in assay [7] it was 2.52 nM. Moreover, the koff in assay [2] was determined as 0.0008 s⁻¹; in assay [3], 0.004 s⁻¹; in assay [4], 0.00255 s⁻¹; in assay [5] it was 0.000224 s⁻¹; in assay [6] it was 0.000711 s⁻¹; in assay [7] it was 0.000484 s⁻¹. In addition, the kon in assay [2] came to 264000 M⁻¹ s⁻¹; in assay [3], 283000 M⁻¹ s⁻¹; in assay [4] it was 282000 M⁻¹ s⁻¹; in assay [5] it was 197000 M⁻¹ s⁻¹; in assay [6] it was 207000 M⁻¹ s⁻¹; in assay [7], 192000 M⁻¹ s⁻¹. Further, the t½ in assay [2] was 14 min; in assay [3], 3 min; in assay [4], 5 min; in assay [5] it was 52 min; in assay [6] it was 16 min; in assay [7], 24 min.

(Values after patent US20220185900A1 (Regeneron, published 2022).)
